Measured values reported in the supplement of paper PMC10567573.

B1: PKD2L1 (parent)
chain: TLARCAKDILGFAVMFFIVFFAYA
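Also: lentivirally expressed fusions sorted by FACS into six bins by GFP to DsRed ratio, PSI derived from sequencing read proportions per bin multiplied by bin number.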

Variants of: B1
Test: protein stability index of a GFP-peptide fusion (GPS, HEK-293T) (PSI 1-6); higher = more stable
Conditions: c terminus: a fixed tail appended
For TLARCAKDGLGFAVMFFIVFFAYA, the protein stability index was 2.66. Variant TLARCAKDYLGFAVMFFIVFFAYA has a protein stability index of 1.94. In the case of TLARCAKDQLGFAVMFFIVFFAYA, the protein stability index is reported as 1.84. Work on TLARCAKDELGFAVMFFIVFFAYA yielded a protein stability index of 1.46. With TLARCAKDWLGFAVMFFIVFFAYA the protein stability index was 2.43. Variant TLARCAKDPLGFAVMFFIVFFAYA has a protein stability index of 1.93. Variant TLARCAKDRLGFAVMFFIVFFAYA has a protein stability index of 1.74. TLARCAKDCLGFAVMFFIVFFAYA showed a protein stability index of 3.32. In the case of TLARCAKDSLGFAVMFFIVFFAYA, the protein stability index is reported as 2.6. TLARCAKDDLGFAVMFFIVFFAYA showed a protein stability index of 1.64. TLARCAKDNLGFAVMFFIVFFAYA gave a protein stability index of 1.69. TLARCAKDLLGFAVMFFIVFFAYA gave a protein stability index of 1.58. In the case of TLARCAKDVLGFAVMFFIVFFAYA, the protein stability index is reported as 2.24. With TLARCAKDHLGFAVMFFIVFFAYA the protein stability index was 2.46. With TLARCAKDMLGFAVMFFIVFFAYA the protein stability index was 3.48. TLARCAKDFLGFAVMFFIVFFAYA showed a protein stability index of 3.86. Variant TLARCAKDKLGFAVMFFIVFFAYA has a protein stability index of 1.22. TLARCAKDALGFAVMFFIVFFAYA gave a protein stability index of 2.44. For TLARCAKDTLGFAVMFFIVFFAYA, the protein stability index was 1.58. Variant TLARCAKDILCFAVMFFIVFFAYA has a protein stability index of 2.06. Variant TLARCAKDILNFAVMFFIVFFAYA has a protein stability index of 2.4. In the case of TLARCAKDILKFAVMFFIVFFAYA, the protein stability index is reported as 3.33. Variant TLARCAKDILIFAVMFFIVFFAYA has a protein stability index of 2.79. In the case of TLARCAKDILHFAVMFFIVFFAYA, the protein stability index is reported as 3.32. TLARCAKDILAFAVMFFIVFFAYA showed a protein stability index of 1.41. In the case of TLARCAKDILQFAVMFFIVFFAYA, the protein stability index is reported as 2.35. Variant TLARCAKDILMFAVMFFIVFFAYA has a protein stability index of 1.48. For TLARCAKDILWFAVMFFIVFFAYA, the protein stability index was 1.06. Work on TLARCAKDILTFAVMFFIVFFAYA yielded a protein stability index of 3.47. In the case of TLARCAKDILEFAVMFFIVFFAYA, the protein stability index is reported as 3.51. In the case of TLARCAKDILRFAVMFFIVFFAYA, the protein stability index is reported as 2.72. For TLARCAKDILLFAVMFFIVFFAYA, the protein stability index was 1.73. In the case of TLARCAKDILDFAVMFFIVFFAYA, the protein stability index is reported as 2.28. Variant TLARCAKDILVFAVMFFIVFFAYA has a protein stability index of 1.74. TLARCAKDILYFAVMFFIVFFAYA gave a protein stability index of 2.38. TLARCAKDILSFAVMFFIVFFAYA showed a protein stability index of 3.06. Work on TLARCAKDILFFAVMFFIVFFAYA yielded a protein stability index of 1.22. TLARCAKDILPFAVMFFIVFFAYA gave a protein stability index of 1.81. With TLARCAKDILGFAVMFFIAFFAYA the protein stability index was 2.61. For TLARCAKDILGFAVMFCIVFFAYA, the protein stability index was 2.07. For TLARCAKDILGFAVMFRIVFFAYA, the protein stability index was 2.98. Work on TLARCAKDILGFAVMFWIVFFAYA yielded a protein stability index of 1.91. TLARCAKDILGFAVMFVIVFFAYA showed a protein stability index of 2.44. Variant TLARCAKDILGFAVMFAIVFFAYA has a protein stability index of 1.79. TLARCAKDILGFAVMFGIVFFAYA showed a protein stability index of 2.44. TLARCAKDILGFAVMFEIVFFAYA gave a protein stability index of 2.32. TLARCAKDILGFAVMFDIVFFAYA gave a protein stability index of 3.23. With TLARCAKDILGFAVMFSIVFFAYA the protein stability index was 2.03. TLARCAKDILGFAVMFQIVFFAYA gave a protein stability index of 1.98. For TLARCAKDILGFAVMFHIVFFAYA, the protein stability index was 3.23. TLARCAKDILGFAVMFMIVFFAYA gave a protein stability index of 1.84. TLARCAKDILGFAVMFKIVFFAYA showed a protein stability index of 2.06. Work on TLARCAKDILGFAVMFTIVFFAYA yielded a protein stability index of 2.4. Work on TLARCAKDILGFAVMFIIVFFAYA yielded a protein stability index of 2.44. Variant TLARCAKDILGFAVMFYIVFFAYA has a protein stability index of 2.37. TLARCAKDILGFAVMFNIVFFAYA gave a protein stability index of 1.56. For TLARCAKMILGFAVMFFIVFFAYA, the protein stability index was 2.76. In the case of TLARCAKKILGFAVMFFIVFFAYA, the protein stability index is reported as 2.07. In the case of TLARCAKPILGFAVMFFIVFFAYA, the protein stability index is reported as 2.25. Variant TLARCAKWILGFAVMFFIVFFAYA has a protein stability index of 2.88. Variant TLARCAKTILGFAVMFFIVFFAYA has a protein stability index of 3.06. For TLARCAKSILGFAVMFFIVFFAYA, the protein stability index was 1.98. In the case of TLARCAKQILGFAVMFFIVFFAYA, the protein stability index is reported as 1.51. TLARCAKYILGFAVMFFIVFFAYA showed a protein stability index of 2.7. TLARCAKLILGFAVMFFIVFFAYA showed a protein stability index of 2.47. Variant TLARCAKNILGFAVMFFIVFFAYA has a protein stability index of 1.91. With TLARCAKVILGFAVMFFIVFFAYA the protein stability index was 2.33. With TLARCAKRILGFAVMFFIVFFAYA the protein stability index was 2.06. In the case of TLARCAKDILGFAVMFFGVFFAYA, the protein stability index is reported as 2.09. TLARCAKDILGFAVMFFAVFFAYA gave a protein stability index of 2.54. In the case of TLARCAKDILGFAVMFFYVFFAYA, the protein stability index is reported as 3.2. In the case of TLARCAKDILGFAVMFFRVFFAYA, the protein stability index is reported as 2.18. Variant TLARCAKDILGFAVMFFQVFFAYA has a protein stability index of 1.54. TLARCAKDILGFAVMFFSVFFAYA showed a protein stability index of 1.72. For TLARCAKDILGFAVMFFEVFFAYA, the protein stability index was 2. For TLARCAKDILGFAVMFFHVFFAYA, the protein stability index was 1.92. Variant TLARCAKDILGFAVMFFKVFFAYA has a protein stability index of 1.71. For TLARCAKDILGFAVMFFPVFFAYA, the protein stability index was 2.18. Variant TLARCAKDILGFAVMFFWVFFAYA has a protein stability index of 3.5. For TLARCAKDILGFAVMFFTVFFAYA, the protein stability index was 1.74. With TLARCAKDILGFAVMFFNVFFAYA the protein stability index was 1.6. With TLARCAKDILGFAVMFFCVFFAYA the protein stability index was 2.29. Variant TLARCAKDILGFAVMFFFVFFAYA has a protein stability index of 3.16. In the case of TLARCAKDILGFAVMFFDVFFAYA, the protein stability index is reported as 3.03. In the case of TLARCAKDILGFAVMFFMVFFAYA, the protein stability index is reported as 1.49. For TLARCAKDIYGFAVMFFIVFFAYA, the protein stability index was 2.38. TLARCAKDISGFAVMFFIVFFAYA gave a protein stability index of 1.84. TLARCAKDIAGFAVMFFIVFFAYA showed a protein stability index of 2.38. Work on TLARCAKDIPGFAVMFFIVFFAYA yielded a protein stability index of 3.1. In the case of TLARCAKDIWGFAVMFFIVFFAYA, the protein stability index is reported as 2.49. In the case of TLARCAKDIQGFAVMFFIVFFAYA, the protein stability index is reported as 3.08. Work on TLARCAKDIVGFAVMFFIVFFAYA yielded a protein stability index of 2.92. With TLARCAKDIMGFAVMFFIVFFAYA the protein stability index was 2.61. In the case of TLARCAKDIFGFAVMFFIVFFAYA, the protein stability index is reported as 1.91.
